From paper PMC9579148 (European Journal of Medicinal Chemistry, 2022)
No end group written: not given here.

Columns and labels:
[1] = molecular target: recombinant SARS-CoV-2 M^pro (Proteros) (SARS-CoV-2); assay: cell-based or functional assay
[2] = molecular target: recombinant SARS-CoV-2 M^pro (Proteros) (SARS-CoV-2); assay: FRET enzymatic inhibition assay

| Binder | IC50 of inhibition of M^pro enzymatic activity (FRET substrate cleavage) [1] [µM] | Kd [2] [µM] |
| --- | --- | --- |
| Ac-Gly-His-His-aldehyde (SMILES CC(=O)NCC(=O)N[C@@H](Cc1c[nH]cn1)C(=O)N[C@H](C=O)Cc1c[nH]cn1) [compound 5 (aldehydic tripeptide)] | > 213 | > 107 |
| Ac-Gly-Tyr-His-aldehyde (SMILES CC(=O)NCC(=O)N[C@@H](Cc1ccc(O)cc1)C(=O)N[C@H](C=O)Cc1c[nH]cn1) [compound 8 (aldehydic tripeptide)] | 198 | 98.9 ± 11.9 |
| Ac-Gly-His-Tyr-aldehyde (SMILES CC(=O)NCC(=O)N[C@@H](Cc1c[nH]cn1)C(=O)N[C@H](C=O)Cc1ccc(O)cc1) [compound 7 (aldehydic tripeptide)] | > 425 | > 213 |
| Pro-His-His-aldehyde [compound 9 (aldehydic tripeptide)] | > 170 | > 85 |
